Data on three molecules can be found in US20210355194A1.

Read-outs that look alike come from different tables or passages of the source.

What is called IC50 is the concentration needed to halve the response being measured. Lower therefore signals inhibition by little substance. As usually defined, the Kd is the free concentration of one partner at which half of the binding sites on the other are occupied at equilibrium, for simple one-to-one binding. A low value points to higher affinity.

Common to all, as to details: remark: other sources report otherwise
In assay [1] the target is SARS-COV2-S1 RBD (mouse IgG2Fc tag) (SARS-CoV-2), P0DTC2. Kind of assay: FACS, S1 RBD-mFc on Vero E6 (ACE2). Background: In flow cytometry, cells or beads pass a laser one at a time.
Assay [2] has the same target. Kind of assay: column not explained; likely FACS, S1 RBD on Vero E6.
The target is the same in assay [3]. Kind of assay: FACS, blocks S1 RBD-mFc binding to ACE2 on Vero E6.
Assay [4] has the same target.
Assay [5] deals with T1, CV S-protein construct 6 trimer TP31001F (SARS-CoV-2), P0DTC2. Kind of assay: SPR. In general terms: SPR reads the build-up and loss of mass on a sensor chip optically.
The target of assay [6] is T1, CV S-protein construct 6 trimer …. Kind of assay: SPR. This is another data set of the same source.
Assay [7] has as its target SARS-COV2-S1 RBD (mouse IgG2Fc tag) (SARS-CoV-2), P0DTC2. The source holds these as a separate data set.

B1: variant 6-3 (Fc fusion)
VHH: EVQLVESGGGLVQPGGSLRLSCAASGFTFSPSWMGWFRQAPGKEREFVATINEYGGRNYADSVKGRFTISADNSKNTAYLQMNSLKPEDTAVYYCARVDRDFDYWGQGTLVTVSS
With B1, the Competition Factor in assay [1] is 9.51. This molecule also showed an MFI Fold Decrease in assay [2] of 9.51 fold. The same molecule returned an IC50 in assay [3] of 0.74 nM.

B2: variant 5-50 (Fc fusion)
VHH: EVQLVESGGGLVQPGGSLRLSCAASGFSLDYYGMGWFRQAPGKEREFVAAITSGGTPHYADSVKGRFTISADNSKNTAYLQMNSLKPEDTAVYYCASAYNPGIGYDWGQGTLVTVSS
As for B2, in assay [4], the IC50 is 1.61 nM. In addition, in assay [5], the dissociation constant (Kd) turned out to be 3.8 nM.

B3: variant 6-81 (Fc fusion)
VHH: EVQLVESGGGLVQPGGSLRLSCAASGFIGNYHAMGWFRQAPGKEREFVAAVTWSGGTTNYADSVKGRFTISADNSKNTAYLQMNSLKPEDTAVYYCAREGYYYDSSGYPYYFDYWGQGTLVTVSS
Turning to B3, the Kd in assay [5] and in assay [6] was 3.9 nM each time. The same molecule had an IC50 in assay [7] of 1.38 nM.
